Data published in the supplement of paper PMC7877785.
± gives the uncertainty stated by the source.

Test: self-splicing fitness, log relative to wild type (ln ratio); higher = more splicing; Tetrahymena group I intron in knt gene, E. coli kanamycin selection, DiMSum; sequences stand for … in CUCUCU…GGAGGGAAAAGUUAUCAGGCAUGCACCUGGUAGCUAGUCUUUAAACCAAUAGAUUGCAUCGGUUUAAAAGGCAAGACCGUCAAAUUGCGGGAAAGGGGUCAACAGCCGUUCAGUACCAAGUCUCAGGGGAAACUUUGAGAUGGCCUUGCAAAGGGUAUGGUAAUAAGCUGACGGACAUGGUCCUAACCACGCAGCCAAGUCCUAAGUCAACAGAUCUUCUGUUGAUAUGGAUGCAGUUCACAGACUAAAUGUCGGUCGGGGAAGAUGUAUUCUUCUCAUAAGAUAUAGUCGGACCUCUCCUUAAUGGGAGCUAGCGGAUGAAGUGAUGCAACACUGGAGCCGCUGGGAACUAAUUUGUAUGCGAAAGUAUAUUGAUUAGUUUUGGAGUACUCGUGGUCG
Summary of the method: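 DiMSum derived fitness as the error-weighted combination of fold changes across replicates, kanamycin versus no kanamycin, normalised to wild type. E. coli BL21(DE3) held the library, which randomised all eight P1ex-region intron nucleotides within the knt kanamycin-resistance gene on pET-22b(+). Six replicate transformations grew overnight at 37°C or 30°C on LB agar with or without 25 μg/mL kanamycin, also containing 100 μg/mL carbenicillin, 50 μM IPTG and 0.2% rhamnose, and pooled colonies were amplicon-sequenced on an Illumina HiSeq 2500.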

| Sequence | self-splicing fitness (ln) (30 °C) | self-splicing fitness (ln) (37 °C) |
| --- | --- | --- |
| CCAGAGCAAUAUUACGGUGC | -2.81 ± 0.14 | -2.28 ± 0.23 |
| GAAUAGCAAUAUUACGAGUC | -3.29 ± 0.15 | -1.4 ± 0.11 |
| AUGAAGCAAUAUUACGGCGC | -0.339 ± 0.074 | 0.665 ± 0.11 |
| GAUAAGCAAUAUUACGCGUG | -0.603 ± 0.072 | -0.471 ± 0.088 |
| UAGAAGCAAUAUUACGGGAA | -1.96 ± 0.25 | -2.3 ± 0.29 |
| CCGUAGCAAUAUUACGCUUU | -3.52 ± 0.43 | -2.23 ± 0.49 |
| UCUAAGCAAUAUUACGGAGU | -2.04 ± 0.13 | -0.505 ± 0.14 |
| UGGCAGCAAUAUUACGGGGC | -3.67 ± 0.47 | -2.18 ± 0.4 |
| UCAGAGCAAUAUUACGCGCG | -2.44 ± 0.19 | -1.79 ± 0.18 |
| AUGCAGCAAUAUUACGUUCA | -1.16 ± 0.11 | -0.74 ± 0.12 |
| UAGGAGCAAUAUUACGGCUA | -0.122 ± 0.11 | 0.147 ± 0.11 |
| AAUUAGCAAUAUUACGGAAC | -2.77 ± 0.13 | -2.18 ± 0.2 |
| GUGAAGCAAUAUUACGGUAG | -1.79 ± 0.087 | -0.687 ± 0.1 |
| GUAGAGCAAUAUUACGAUAC | -1.42 ± 0.13 | -0.561 ± 0.18 |
| GCUAAGCAAUAUUACGCCUC | -1.89 ± 0.16 | -0.286 ± 0.22 |
| UGAAAGCAAUAUUACGUACC | -1.36 ± 0.12 | -1.61 ± 0.17 |
| UUCUAGCAAUAUUACGUAGU |  | -1.6 ± 0.24 |
| UAUAAGCAAUAUUACGAACG | -0.609 ± 0.12 | 0.622 ± 0.15 |
| UUGCAGCAAUAUUACGCCCG | -0.555 ± 0.18 | -1.07 ± 0.18 |
| UAGGAGCAAUAUUACGGCCA | -2.27 ± 0.21 | -1.7 ± 0.27 |
| CUCCAGCAAUAUUACGCUAU | -3.89 ± 0.33 | -2.44 ± 0.22 |
| AAUGAGCAAUAUUACGUGGA | -3.35 ± 0.32 | -3.04 ± 0.35 |
| UUACAGCAAUAUUACGAAAA | -2.35 ± 0.17 | -0.806 ± 0.14 |
| GGAUAGCAAUAUUACGGGGU |  | -3.01 ± 0.35 |
| CCUCAGCAAUAUUACGCACA | -3.09 ± 0.48 | -2.02 ± 0.26 |
| UACUAGCAAUAUUACGGGUU | -2.34 ± 0.18 | -1.78 ± 0.16 |

| Sequence | self-splicing fitness (ln) (30 °C) | self-splicing fitness (ln) (37 °C) |
| --- | --- | --- |
| AAGCAGCAAUAUUACGAGCG | -1.12 ± 0.11 | -0.344 ± 0.14 |
| UGUAAGCAAUAUUACGAUUC |  | -2.35 ± 0.26 |
| CGCAAGCAAUAUUACGGUGA | -0.78 ± 0.084 | -0.469 ± 0.091 |
| AUUAAGCAAUAUUACGAAUG | -2.82 ± 0.2 | -0.206 ± 0.2 |
| CCCUAGCAAUAUUACGGCGC | -3.55 ± 0.21 | -3.28 ± 0.24 |
| UUCUAGCAAUAUUACGACUC | -3.11 ± 0.31 | -0.392 ± 0.14 |
| CAUAAGCAAUAUUACGGACU | -3.64 ± 0.18 | -2.97 ± 0.23 |
| CCCGAGCAAUAUUACGUCGA | -4.11 ± 0.39 | -3.16 ± 0.25 |
| UGUGAGCAAUAUUACGGUGC | -3.57 ± 0.25 | -1.77 ± 0.21 |
| GGAGAGCAAUAUUACGGGAU | -4.2 ± 0.36 | -3.23 ± 0.35 |
| GGUUAGCAAUAUUACGCCUA | 0.0795 ± 0.32 | -1.32 ± 0.25 |
| UGGCAGCAAUAUUACGUCGA | -0.694 ± 0.04 | 0.401 ± 0.058 |
| AAGUAGCAAUAUUACGACAC | -0.538 ± 0.19 | -0.726 ± 0.19 |
| GUAUAGCAAUAUUACGGUAG | -1.43 ± 0.095 | -1.23 ± 0.15 |
| GCCCAGCAAUAUUACGGCCC | -1.09 ± 0.18 | -0.738 ± 0.32 |
| CUCGAGCAAUAUUACGUGUU | -2.06 ± 0.16 | -1.97 ± 0.19 |
| AUGGAGCAAUAUUACGAAGA |  | -1.17 ± 0.33 |
| AAGAAGCAAUAUUACGGAAA | -2.17 ± 0.19 | -1.72 ± 0.2 |
| UCAGAGCAAUAUUACGGGUC | -3.97 ± 0.34 | -2.12 ± 0.32 |
| GAGAAGCAAUAUUACGAGAA | -2.75 ± 0.47 | -0.703 ± 0.35 |
| GACUAGCAAUAUUACGGUUU | -1.7 ± 0.092 | -1.53 ± 0.11 |
| CCAGAGCAAUAUUACGAACC | -2.33 ± 0.28 | -1.77 ± 0.38 |
| GCCAAGCAAUAUUACGUCCG | -2.19 ± 0.33 | -1.6 ± 0.32 |
| UAAAAGCAAUAUUACGUGAG | -0.888 ± 0.044 | -0.622 ± 0.078 |
| CCUUAGCAAUAUUACGUCUC |  | -2.63 ± 0.3 |
| UCAUAGCAAUAUUACGCGAC |  | -1.46 ± 0.46 |

| Sequence | self-splicing fitness (ln) (30 °C) | self-splicing fitness (ln) (37 °C) |
| --- | --- | --- |
| CGUUAGCAAUAUUACGCGGC | -2.07 ± 0.23 | -2.19 ± 0.26 |
| AUCGAGCAAUAUUACGGCUA | -1.22 ± 0.12 | -1.28 ± 0.12 |
| CGUUAGCAAUAUUACGCGGU | -3.07 ± 0.19 | -3.35 ± 0.29 |
| CGUGAGCAAUAUUACGACGU | -2.12 ± 0.19 | -2.37 ± 0.18 |
| GAACAGCAAUAUUACGCAUU | -1.67 ± 0.095 | -0.812 ± 0.12 |
| GCUCAGCAAUAUUACGGCCC | -1.13 ± 0.078 | -0.029 ± 0.1 |
| GUAGAGCAAUAUUACGAUUU | -1.13 ± 0.12 | -0.037 ± 0.21 |
| AACCAGCAAUAUUACGCAUG | -1.7 ± 0.082 | -0.971 ± 0.083 |
| GCUAAGCAAUAUUACGGGAU | -2.86 ± 0.1 | -0.821 ± 0.081 |
| CAACAGCAAUAUUACGUGGU | -4.16 ± 0.12 | -2.01 ± 0.096 |
| CUAGAGCAAUAUUACGGGCC | -2.86 ± 0.34 | -1.76 ± 0.34 |
| UGCGAGCAAUAUUACGAGCA | -1.98 ± 0.18 | -2.37 ± 0.22 |
| UCGUAGCAAUAUUACGUGGU | -3.45 ± 0.4 | -2.67 ± 0.48 |
| GUUUAGCAAUAUUACGGCUG | -1.79 ± 0.1 | -0.169 ± 0.17 |
| CAUUAGCAAUAUUACGGGGC | -3.44 ± 0.23 | -1.95 ± 0.23 |
| UCUGAGCAAUAUUACGGAAG | -4.27 ± 0.2 | -3.07 ± 0.23 |
| AGCGAGCAAUAUUACGUAGC | -2.83 ± 0.26 | -0.813 ± 0.27 |
| AAUUAGCAAUAUUACGUACU | -0.151 ± 0.089 | 0.263 ± 0.13 |
| AACCAGCAAUAUUACGGCUC | -1.34 ± 0.1 | -0.82 ± 0.11 |
| AAAUAGCAAUAUUACGGGCU | -2.04 ± 0.15 | -0.367 ± 0.13 |
| ACGUAGCAAUAUUACGACUU | -0.145 ± 0.099 | 0.593 ± 0.13 |
| UUGCAGCAAUAUUACGGUAU | -1.86 ± 0.11 | -1.63 ± 0.14 |
| UCCGAGCAAUAUUACGUCAU | -3.59 ± 0.27 | -2.75 ± 0.44 |
| GGCGAGCAAUAUUACGGAUG | -3.22 ± 0.19 | -1.7 ± 0.15 |
| AUCUAGCAAUAUUACGAGCG | -1.87 ± 0.12 | -1.25 ± 0.15 |
